Measured values reported in US11220526B2, “Neuropeptide S receptor (NPSR) agonists” (Research Triangle Institute, priority 2016, dated 2022).
Square brackets hold non-standard residues; d marks the D form. Peptide text beside a SMILES is read from it. * marks the point of attachment. Phe(4-Cl) = N[C@@H](Cc1ccc(Cl)cc1)C(=O)O; Lys(Me2) = CN(C)CCCC[C@H](N)C(=O)O; Bz = O=C(c1ccccc1)*

Columns and labels:
C57BL/6 mice = experiment: Locomotor activity (horizontal, vertical, stereotypic) after i.c.v. injection; assay type: in vivo
Procedure: Male C57BL/6 mice (National Cancer Institute, Bethesda, Md., or Charles River Laboratories, Wilmington, Mass.), age 8-12 weeks, were group-housed (4 animals per cage) under controlled conditions (temperature 21 f 2° C.; relative humidity 50-60%; 12-hour light-dark cycle, lights on 6:00 AM) with free access to food and water. For intracerebroventricular (i.c.v.) drug injections, mice were briefly anesthetized with isofluorane. NPS was dissolved in phosphate-buffered saline (PBS, pH 7.4) containing 0.1% bovine serum albumin and injected i.c.v. (total volume: 2 μl) as described before (Xu et al., 2004). NPSR antagonist compounds were dissolved in PBS containing 10% Cremophor EL (Sigma) and 100 μl were injected intraperitoneally (i.p.).
Locomotion of mice was monitored in an automated activity system equipped with infrared sensors for both horizontal and vertical activity measurements (Versamax, Accuscan Inc., Columbus, Ohio). Male C57BL/6 mice were allowed to habituate to the recording chamber for 1 h. Vehicle or NPSR antagonist compound (in PBS, 10% cremophor EL) were injected i.p. 10 minutes before central administration of either NPS (1 nmole in 2 μl PBS, 0.1% BSA) or vehicle (PBS, 0.1% BSA). […] Horizontal activity represents infrared beam breaks in the X and Y dimension, while vertical activity was recorded by infrared sensors located 8 cm above the chamber floor (Z dimension). […]

NPSR = target: T1, NPSR (Homo sapiens, UniProt Q6W5P4); conditions: Bernier et al. 2006; cited from earlier work
T1 sequence (Q6W5P4 1-371): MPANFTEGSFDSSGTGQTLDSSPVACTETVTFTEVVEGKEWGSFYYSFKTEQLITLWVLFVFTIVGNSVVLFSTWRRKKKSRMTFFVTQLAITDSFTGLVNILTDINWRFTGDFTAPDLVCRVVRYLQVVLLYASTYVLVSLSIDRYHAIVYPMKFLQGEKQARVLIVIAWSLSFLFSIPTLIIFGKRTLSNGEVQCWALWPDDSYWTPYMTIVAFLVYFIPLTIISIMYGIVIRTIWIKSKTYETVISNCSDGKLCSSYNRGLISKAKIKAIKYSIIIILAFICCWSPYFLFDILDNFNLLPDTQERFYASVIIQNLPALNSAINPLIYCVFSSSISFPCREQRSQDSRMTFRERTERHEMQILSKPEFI

[1] = NPS administration; cited from earlier work
NPSR-C-Alt = target: T2, NPSR-C-Alt (Homo sapiens, UniProt Q6W5P4); conditions: functional assay; cited from earlier work
T2 sequence (Q6W5P4 1-377 isoform Q6W5P4-4): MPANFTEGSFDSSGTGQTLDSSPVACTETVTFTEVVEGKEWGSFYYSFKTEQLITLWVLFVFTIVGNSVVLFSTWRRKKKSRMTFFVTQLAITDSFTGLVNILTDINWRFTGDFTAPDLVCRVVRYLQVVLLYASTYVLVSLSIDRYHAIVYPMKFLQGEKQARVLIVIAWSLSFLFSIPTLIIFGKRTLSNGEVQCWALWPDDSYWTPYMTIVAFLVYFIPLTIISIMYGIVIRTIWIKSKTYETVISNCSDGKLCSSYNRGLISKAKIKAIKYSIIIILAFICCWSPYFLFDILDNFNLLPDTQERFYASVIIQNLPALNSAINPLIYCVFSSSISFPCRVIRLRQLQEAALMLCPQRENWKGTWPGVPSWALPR

O=C(NCCN1CCCCC1)N1CCN2C(=O)OC(c3ccccc3)(c3ccccc3)C2C1 (centres unmarked) [RTI-11817-163]
effect on R06039-398 mediated increases in horizontal and vertical activity (C57BL/6 mice; antagonist added to icv R06039-398, mice): reverses

peptide 4-20: NPS with the first three NH2-terminal residues removed (NGVGTGMKKTSFQRAKS; Neuropeptide S; UniProt P0C0P6 73-89, looked up, fragment)
effect of truncation on NPSR activation (NPSR): largely inactive

peptide 1-6: NPS with the C-terminal 14 residues removed (SFRNGV; Neuropeptide S; UniProt P0C0P6 70-75, looked up, fragment)
effect of truncation on NPSR activation (NPSR): limited effect on the potency

peptide 2-20: NPS with Ser-1 removed (FRNGVGTGMKKTSFQRAKS; Neuropeptide S; UniProt P0C0P6 71-89, looked up, fragment)
effect of truncation on NPSR activation (NPSR): detrimental to function

SFRNGVGTGMKKTSFQRAKS [hNPS, 20 residue peptide, endogenous ligand of the neuropeptide S receptor]
performance in novel recognitions assays [1]: dose-dependently improved performance
potency at NPSR-C-Alt versus the 107I variant (NPSR-C-Alt): 30 fold lower

peptide 3-20: NPS with the first two NH2-terminal residues removed (RNGVGTGMKKTSFQRAKS; Neuropeptide S; UniProt P0C0P6 72-89, looked up, fragment)
effect of truncation on NPSR activation (NPSR): largely inactive

CN(C)CCCC[C@H](NC(=O)[C@H](Cc1ccc(Cl)cc1)NC(=O)c1ccccc1)C(=O)N[C@@H](CC(N)=O)C(N)=O [Example R06039-398] (Bz-[Phe(4-Cl)]-[Lys(Me2)]-Asn-NH2)
cumulative activities (horizontal, vertical, stereotypic) measured (C57BL/6 mice; icv administration, male C57BL/6 mice, 90 minutes recording): increasing with dose
